We go through 29 molecules from patent publication US7998940B2, “Aptamers to von Willebrand factor and their use as thrombotic disease therapeutics” (Archemix Corp., priority 2004, dated 2011).

Positions count from the first letter of the chain named.

B1: AMX237.D11: DNA SELEX 2 aptamer clone (nucleic acid)
DNA: CTACCTACGATCTGACTAGCTCCAGTGTTTTATATAATAACCGTGCGGTGCCTCCGTGATGCTTACTCTCATGTAGTTCC
modifications: DNA, backbone not given here
notes: DNA SELEX 2 aptamer clone
B2: AMX237.F6: DNA SELEX 2 aptamer clone (nucleic acid)
DNA: B1 DNA with A34C
modifications: DNA, backbone not given here
notes: DNA SELEX 2 aptamer clone
B3: AMX237.C7: DNA SELEX 2 aptamer clone (nucleic acid)
DNA: B1 DNA with A34T, T35C
modifications: DNA, backbone not given here
notes: DNA SELEX 2 aptamer clone
B4: AMX236.F7: DNA SELEX 2 aptamer clone (nucleic acid)
chain: CTACCTACGATCTGACTAGCCCCCACTTATCGTGTACCTTATGATATGTCGAATACTCTTGCTTACTCTCATGTAGTTCC
modifications: DNA, backbone not given here
notes: DNA SELEX 2 aptamer clone
B5: AMX236.H1: DNA SELEX 2 aptamer clone (nucleic acid)
chain: CTACCTACGATCTGACTAGCCTCAGATTGACTCCGGCCGACTTGTTTTAATCTTCTGAGTGCTTACTCTCATGTAGTTCC
modifications: DNA, backbone not given here
notes: DNA SELEX 2 aptamer clone
B6: AMX236.G1: DNA SELEX 2 aptamer clone (nucleic acid)
chain: B5 chain with C38T
modifications: DNA, backbone not given here
notes: DNA SELEX 2 aptamer clone
B7: AMX238.A12: DNA SELEX 2 aptamer clone (nucleic acid)
DNA: CTACCTACGATCTGACTAGCCAGTTCTGGGAAAAATTATTTTTTTATTTCGATCGTATATGCTTACTCTCATGTAGTTCC
modifications: DNA, backbone not given here
notes: DNA SELEX 2 aptamer clone
B8: AMX236.C9: DNA SELEX 2 aptamer clone (nucleic acid)
chain: B7 DNA with A59T
modifications: DNA, backbone not given here
notes: DNA SELEX 2 aptamer clone
B9: AMX238.G4: DNA SELEX 2 aptamer clone (nucleic acid)
DNA: CTACCTACGATCTGACTAGCTTGTCGCACTTTTGGTTGGTCTGGTTGGTTCTAAGTGCGCTTACTCTCATGTAGTTCC
modifications: DNA, backbone not given here
notes: DNA SELEX 2 aptamer clone
B10: AMX238.H9: DNA SELEX 2 aptamer clone (nucleic acid)
DNA: B9 DNA with C51T
modifications: DNA, backbone not given here
notes: DNA SELEX 2 aptamer clone
B11: AMX236.C6: DNA SELEX 2 aptamer clone (nucleic acid)
chain: CTACCTACGATCTGACTAGCGGAATGAGAGTGCTGGTGGATTGCTCAGGTCTGCTGGCTGCTTACTCTCATGTAGTTCC
modifications: DNA, backbone not given here
notes: DNA SELEX 2 aptamer clone
B12: AMX238.F6: DNA SELEX 2 aptamer clone (nucleic acid)
DNA: B11 chain with A29T, G30A
modifications: DNA, backbone not given here
notes: DNA SELEX 2 aptamer clone
B13: AMX236.E2: DNA SELEX 2 aptamer clone (nucleic acid)
chain: B11 chain with A29T, G30A, G36A
modifications: DNA, backbone not given here
notes: DNA SELEX 2 aptamer clone
B14: AMX238.A3: DNA SELEX 2 aptamer clone (nucleic acid)
DNA: CTACCTACGATCTGACTAGCTCAAAGTATTACTTATTGGCAATAAGTCGTTTACTCTATAGCTTACTCTCATGTAGTTCC
modifications: DNA, backbone not given here
notes: DNA SELEX 2 aptamer clone
B15: AMX236.B3: DNA SELEX 2 aptamer clone (nucleic acid)
chain: CTACCTACGATCTGACTAGCCTTACCTATTCCCTTCTGCGGAATACGTCGAGTACTATGCTTACTCTCATGTAGTTCC
modifications: DNA, backbone not given here
notes: DNA SELEX 2 aptamer clone
B16: AMX238.D9: DNA SELEX 2 aptamer clone (nucleic acid)
DNA: CTACCTACGATCTGACTAGCCAGTTCTGGGAAAAATCATTTTTTATTTCGATCGTATTTGCTTACTCTCATGTAGTTCC
modifications: DNA, backbone not given here
notes: DNA SELEX 2 aptamer clone
B17: AMX237.H5: DNA SELEX 2 aptamer clone (nucleic acid)
DNA: CTACCTACGATCTGACTAGCTCCAGTGTTTCATTTAATAACCGTGCGGTGCCTCCGTGAGCTTACTCTCATGTAGTTCC
modifications: DNA, backbone not given here
notes: DNA SELEX 2 aptamer clone
B18: AMX238.D5: DNA SELEX 2 aptamer clone (nucleic acid)
DNA: B17 DNA with C31T, T35C, C51T
modifications: DNA, backbone not given here
notes: DNA SELEX 2 aptamer clone
B19: AMX237.B4: DNA SELEX 2 aptamer clone (nucleic acid)
DNA: B17 DNA with T34C, T35C, C52T
modifications: DNA, backbone not given here
notes: DNA SELEX 2 aptamer clone
B20: AMX237.E2: DNA SELEX 2 aptamer clone (nucleic acid)
DNA: B17 DNA with T34C
modifications: DNA, backbone not given here
notes: DNA SELEX 2 aptamer clone
B21: AMX237.E9: DNA SELEX 2 aptamer clone (nucleic acid)
DNA: B17 DNA with C31T, A32G, T34C
modifications: DNA, backbone not given here
notes: DNA SELEX 2 aptamer clone
B22: AMX237.B1: DNA SELEX 2 aptamer clone (nucleic acid)
chain: CTACCTACGATCTGACTAGCTTGGTAGCGACACAGTGGAGCTGCGGTTTGGTCGACGTCAGCTTACTCTCATGTAGTTCC
modifications: DNA, backbone not given here
notes: DNA SELEX 2 aptamer clone
B23: AMX237.C4: DNA SELEX 2 aptamer clone (nucleic acid)
DNA: CTACCTACGATCTGACTAGCTTTCAGTCTTCCACATTTATAGGGTTTGGCATTGGGTCTGGCTTACTCTCATGTAGTTCC
modifications: DNA, backbone not given here
notes: DNA SELEX 2 aptamer clone
B24: AMX237.G2: DNA SELEX 2 aptamer clone (nucleic acid)
DNA: B23 DNA with C31T, C34T
modifications: DNA, backbone not given here
notes: DNA SELEX 2 aptamer clone
B25: AMX237.F5: DNA SELEX 2 aptamer clone (nucleic acid)
DNA: B23 DNA with C24T
modifications: DNA, backbone not given here
notes: DNA SELEX 2 aptamer clone
B26: AMX237.E5: DNA SELEX 2 aptamer clone (nucleic acid)
DNA: B23 DNA with C32T
modifications: DNA, backbone not given here
notes: DNA SELEX 2 aptamer clone
B27: AMX237.F1: DNA SELEX 2 aptamer clone (nucleic acid)
DNA: B23 DNA with A35G
modifications: DNA, backbone not given here
notes: DNA SELEX 2 aptamer clone
B28: AMX238.H11: DNA SELEX 2 aptamer clone (nucleic acid)
DNA: B23 DNA with C31T
modifications: DNA, backbone not given here
notes: DNA SELEX 2 aptamer clone
B29: AMX238.F7: DNA SELEX 2 aptamer clone (nucleic acid)
DNA: CTACCTACGATCTGACTAGCAAGGGGATTGGCTCCGGGTCTGGCGTGCTTGGCATCTTTGGCTTACTCTCATGTAGTTCC
modifications: DNA, backbone not given here
notes: DNA SELEX 2 aptamer clone

Sequence of rabbit vWF A1 domain (SEQ ID NO 6) (as listed by the source): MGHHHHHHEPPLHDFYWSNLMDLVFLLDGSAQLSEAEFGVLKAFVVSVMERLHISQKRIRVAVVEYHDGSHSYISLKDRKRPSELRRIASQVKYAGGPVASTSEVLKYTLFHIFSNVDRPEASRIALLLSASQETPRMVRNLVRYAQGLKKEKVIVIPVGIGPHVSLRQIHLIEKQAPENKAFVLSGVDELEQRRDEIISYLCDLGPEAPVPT

One series relates to rabbit vWF A1 domain (SEQ ID NO 6). Kind of series: 3-point dot blot screen, rabbit vWF A1 domain. It is filed as binding. Conditions: 3-point dot blot screen, 20 nM rabbit vWF A1 domain; ratio of fraction of aptamer bound with target protein to fraction bound without protein. Summed up:
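Rabbit vWF A1 domain binding was screened by dot blot using three conditions: no target protein, human vWF, and rabbit vWF A1 domain at 100 nM (20 nM in the screen run twice). Radiolabeled aptamer bound to nitrocellulose was quantified, and results are expressed as the ratio of bound fraction with protein to bound fraction without protein.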
Consider B1, for which the “Screen Rabbit/No Protein” value is 1.17.

In the case of B2, the “Screen Rabbit/No Protein” value is listed as 1.21.

Take B3: the “Screen Rabbit/No Protein” value is reported as 1.16.

In the case of B4, the “Screen Rabbit/No Protein” value is 1.20.

Regarding B5, the “Screen Rabbit/No Protein” value was 1.14.

On to B6, for which the “Screen Rabbit/No Protein” value is listed as 1.51.

In the case of B7, the “Screen Rabbit/No Protein” value is on record as 0.99.

For the molecule B8, the “Screen Rabbit/No Protein” value was found to be 1.00.

For the molecule B9, the “Screen Rabbit/No Protein” value turned out to be 1.39.

As to B10, the “Screen Rabbit/No Protein” value was 1.32.

On to B11, for which the “Screen Rabbit/No Protein” value came to 5.77.

For the molecule B12, the “Screen Rabbit/No Protein” value was 5.36.

On to B13, for which the “Screen Rabbit/No Protein” value was determined as 3.59.

Consider B14, for which the “Screen Rabbit/No Protein” value is reported as 1.03.

In the case of B15, the “Screen Rabbit/No Protein” value worked out at 1.41.

As for B16, the “Screen Rabbit/No Protein” value is reported as 0.97.

For B17, the “Screen Rabbit/No Protein” value was 1.61.

In the case of B18, the “Screen Rabbit/No Protein” value is on record as 1.40.

For B19, the “Screen Rabbit/No Protein” value came to 1.38.

In the case of B20, the “Screen Rabbit/No Protein” value is 1.61.

Regarding B21, the “Screen Rabbit/No Protein” value turned out to be 2.06.

B22: the “Screen Rabbit/No Protein” value came out at 2.10.

Turning to B23, the “Screen Rabbit/No Protein” value was 1.31.

With B24, the “Screen Rabbit/No Protein” value was found to be 1.16.

As for B25, the “Screen Rabbit/No Protein” value came out at 1.22.

Consider B26, for which the “Screen Rabbit/No Protein” value is listed as 1.15.

Turning to B27, the “Screen Rabbit/No Protein” value is on record as 1.22.

On to B28, for which the “Screen Rabbit/No Protein” value is 1.14.

As for B29, the “Screen Rabbit/No Protein” value is listed as 1.88.

Another series has as its system full length human vWF. Kind of series: 3-point dot blot screen, full length human vWF. The class given is binding. The following applies: 20 nM full length human vWF, ratio of fraction of aptamer bound with target protein to fraction bound without protein. From the text:
When a significant positive ratio of binding of DNA in the presence of human or rabbit vWF A1 domain versus in the absence of protein was seen, the pools were cloned using the TOPO TA cloning kit (Invitrogen Cat. #45-0641, Carlsbad, Calif.) according to the manufacturer's instructions. Round 7 and 11 pool templates were cloned and sequenced (218 total sequences), producing 146 unique clones within 12 sequence families of which sequences from six families show vWF target binding activity. All unique clones were assayed twice in a 3-point dot blot screen (no protein target control, 20 nM full length human vWF (Calbiochem Cat. #681300, La Jolla, Calif.), or 20 nM rabbit vWF A1 domain. The data is presented in the third and fourth columns of Table 17 below as the ratio of the fraction of the aptamer bound to the nitrocellulose in the presence of the target protein to the fraction of aptamer bound in the absence of the target protein.
B1: the “Screen- Human/No Protein” value was determined as 1.16.

Regarding B2, the “Screen- Human/No Protein” value worked out at 1.20.

On to B3, for which the “Screen- Human/No Protein” value amounted to 1.15.

For B4, the “Screen- Human/No Protein” value worked out at 1.18.

Consider B5, for which the “Screen- Human/No Protein” value is on record as 1.10.

Regarding B6, the “Screen- Human/No Protein” value was determined as 1.47.

For B7, the “Screen- Human/No Protein” value turned out to be 1.23.

As for B8, the “Screen- Human/No Protein” value amounted to 1.24.

Consider B9, for which the “Screen- Human/No Protein” value came to 1.09.

In the case of B10, the “Screen- Human/No Protein” value is given as 1.11.

Consider B11, for which the “Screen- Human/No Protein” value came to 1.06.

With B12, the “Screen- Human/No Protein” value is on record as 1.18.

Take B13: the “Screen- Human/No Protein” value was 0.93.

Consider B14, for which the “Screen- Human/No Protein” value worked out at 1.36.

Consider B15, for which the “Screen- Human/No Protein” value was 1.54.

For B16, the “Screen- Human/No Protein” value is 1.22.

B17: the “Screen- Human/No Protein” value turned out to be 1.63.

Regarding B18, the “Screen- Human/No Protein” value turned out to be 1.46.

As for B19, the “Screen- Human/No Protein” value amounted to 1.42.

As to B20, the “Screen- Human/No Protein” value came out at 1.61.

Take B21: the “Screen- Human/No Protein” value is recorded as 2.13.

As to B22, the “Screen- Human/No Protein” value stood at 2.00.

Regarding B23, the “Screen- Human/No Protein” value worked out at 0.97.

Regarding B24, the “Screen- Human/No Protein” value was determined as 1.02.

For B25, the “Screen- Human/No Protein” value was 0.99.

As for B26, the “Screen- Human/No Protein” value was found to be 0.97.

For B27, the “Screen- Human/No Protein” value worked out at 0.98.

On to B28, for which the “Screen- Human/No Protein” value turned out to be 0.98.

Regarding B29, the “Screen- Human/No Protein” value was 1.20.
